Like-named read-outs stand apart in the source and are kept apart here.
Legend:
Experiment in all cases: EMSA
Pax8b [1] = target: T1, Pax8b (Oncorhynchus mykiss (rainbow trout), UniProt W0S4A0 1-303)
Pax8a [2] = target: T2, Pax8a (Oncorhynchus mykiss (rainbow trout), UniProt W0S3W1 1-458)
Nkx2-1 = target: T3, Nkx2-1 (Rattus norvegicus (rat), UniProt P23441 1-372)
T3 sequence: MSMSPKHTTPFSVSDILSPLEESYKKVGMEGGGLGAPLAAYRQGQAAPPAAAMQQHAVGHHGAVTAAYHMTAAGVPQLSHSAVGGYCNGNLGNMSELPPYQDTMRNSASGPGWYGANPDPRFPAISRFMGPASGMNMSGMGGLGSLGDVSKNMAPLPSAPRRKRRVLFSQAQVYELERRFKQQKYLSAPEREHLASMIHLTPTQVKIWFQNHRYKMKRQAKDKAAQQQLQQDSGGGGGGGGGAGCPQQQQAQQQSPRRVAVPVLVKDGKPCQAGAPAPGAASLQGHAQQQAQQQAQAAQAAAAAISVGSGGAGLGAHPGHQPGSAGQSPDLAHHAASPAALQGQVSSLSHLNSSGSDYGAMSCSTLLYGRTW

Pax8b [3] = target: T1, Pax8b; remark: listed apart in the source
Pax8a [4] = target: T2, Pax8a; remark: listed apart in the source

B1: oligo B (dsDNA)
DNA 1: GAACCAGGGATTCTTCACACTTCATAGAGCAGCT
DNA 2: AGCTGCTCTATGAAGTGTGAAGAATCCCTGGTTC
B1: binds (Pax8b [1]); binds (Pax8a [2]); binds (Nkx2-1).

B2: oligonucleotide CT (dsDNA)
DNA 1: CTGTCTAAGCTTGAGTGGGCATCA
DNA 2: TGATGCCCACTCAAGCTTAGACAG
B2: binds (Pax8b [3]); binds (Pax8a [4]).
